Measurements published in patent US20130129719, “HER2 NUCLEIC ACID APTAMERS” (UNIVERSITY OF IOWA RESEARCH FOUNDATION, published 2013).

T1: glyoxylase (negative control protein) (Homo sapiens, UniProt Q04760 Q04760:2-184)
T1 sequence: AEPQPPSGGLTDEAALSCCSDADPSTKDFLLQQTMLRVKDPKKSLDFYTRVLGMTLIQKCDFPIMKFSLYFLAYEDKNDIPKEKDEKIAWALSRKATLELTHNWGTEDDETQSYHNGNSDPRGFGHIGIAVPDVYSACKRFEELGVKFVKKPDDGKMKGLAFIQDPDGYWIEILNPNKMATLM

B1: E1 (ssRNA)
RNA: GGGAGGACGAUGCGGUCCUGUCGUCUGUUCGUCCCCAGACGACUCGCCCGA
B2: C1 (ssRNA)
RNA: GGGAGGACGAUGCGGCUGUCUACCUUCUACUGCCGCAGACGACUCGCCCGA
B3: B1 (ssRNA)
RNA: GGGAGGACGAUGCGGUCUGUUGUGCUUGAUAUGCCCCAGACGACUCGCCCGA
B4: D1 (ssRNA)
RNA: GGGAGGACGAUGCGGAUGUAUGUUGGGAGCCACGCCAGACGACUCGCCCGA

Each binder was assayed against T1, glyoxylase (negative control protein) (assay: FP; specificity control, room temperature). Settings: tags: His-tag; label: 5'-FAM.
Method: (§1) FIG. 3. Binding of HER2-aptamers to recombinant HER2-ECD protein. RNA aptamers labeled with FAM at the 5′ end were incubated with recombinant rat HER2-ECD protein in increasing concentrations up to 1 μM at room temperature for 30 minutes in 100 μL reaction volumes. A non-target protein (glyoxylase) is used as a negative control in these assays (Control protein). The binding reaction is performed in the buffer in which the selection was performed. Fluorescence polarization (FP) values for each RNA concentration are read using an Analyst HT plate reader by LJL Biosystems. FP is given by P=(V−H)/(V+H), where V is the vertical component of polarized light, and H is the horizontal component of polarized light. Values of polarization range from 0 to 500 mP, with 0 mP being no binding of the RNA and 500 mP representing maximal binding. The curve is fit with a one-site binding model using non-linear regression software. This confirms the binding of the HER2 aptamers to […] HER2 using Fluorescence Polarization. […] This experiment was done several times and was reproducible.
(§2) The inventors next verified that several of the internalizing aptamers were binding specifically to HER2 using fluorescence polarization (FP). This was done by measuring binding of the RNAs to recombinant purified rat HER2-ECD (extra cellular domain) (FIG. 3). […] A control protein (human glyoxylase) was used as a negative control for binding in these studies.

Binder	binding result
B1	no binding
B2	no binding
GGGAGGACGAUGCGGGACUGUAUGGGGCUCUGUGCAGACGACUCGCCCGA (ssRNA) [A2]	no binding
B3	no binding
B4	no binding

What follows are binders tested against HER2 extracellular domain (HER2-ECD) (Rattus norvegicus, UniProt P06494 P06494:23-654) (assay: FP; selection buffer, room temperature 30 min, protein up to 1 uM). Settings: label: 5'-FAM.
Method: as §1, §2

Sequence of HER2 extracellular domain (HER2-ECD) (P06494 23-654, one chain of several): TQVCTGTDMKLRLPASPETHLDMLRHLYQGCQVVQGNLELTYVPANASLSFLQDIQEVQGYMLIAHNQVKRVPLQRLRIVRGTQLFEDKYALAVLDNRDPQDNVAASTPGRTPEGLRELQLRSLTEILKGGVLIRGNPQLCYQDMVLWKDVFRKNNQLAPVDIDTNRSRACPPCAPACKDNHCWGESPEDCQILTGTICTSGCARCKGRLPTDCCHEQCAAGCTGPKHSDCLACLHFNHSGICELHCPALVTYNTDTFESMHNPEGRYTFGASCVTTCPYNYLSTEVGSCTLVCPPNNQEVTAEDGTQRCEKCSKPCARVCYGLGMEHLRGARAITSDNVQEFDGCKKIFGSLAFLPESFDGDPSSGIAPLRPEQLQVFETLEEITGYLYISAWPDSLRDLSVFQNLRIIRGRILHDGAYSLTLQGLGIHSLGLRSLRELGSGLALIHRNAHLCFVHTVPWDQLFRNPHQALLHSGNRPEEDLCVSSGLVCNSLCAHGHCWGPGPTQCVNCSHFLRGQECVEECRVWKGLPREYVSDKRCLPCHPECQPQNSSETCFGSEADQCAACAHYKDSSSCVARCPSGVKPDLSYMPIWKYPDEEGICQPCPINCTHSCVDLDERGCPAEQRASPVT

Binder	binding result
B1	binds
B2	binds
GGGAGGACGAUGCGGGACUGUAUGGGGCUCUGUGCAGACGACUCGCCCGA (ssRNA) [A2]	binds
B3	binds
B4	binds
